B1: C9orf25 (parent)
chain: LARKGSLKNGSMGSPVNQQPKKNN
B2: ZNF263 (parent)
chain: VPGTQVGQGGKLWDPSVQSCKEGL

Variants of: B1
Experiment: protein stability index of a GFP-peptide fusion (GPS, HEK-293T) (PSI 1-6); higher = more stable
Details: c terminus: a fixed tail appended
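Further: lentivirally expressed fusions sorted by FACS into six bins by GFP to DsRed ratio, PSI derived from sequencing read proportions per bin multiplied by bin number.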

Protein stability index, by site and new letter:
N24: C 4.69 | D 4.85 | G 4.76 | L 4.76 | I 3.82 | P 4.48 | Y 3.78 | S 4.7 | R 4.42 | W 3.88 | M 4.02 | A 4.52 | E 4.14 | Q 4.85 | T 4.83 | F 3.96 | H 4.79 | V 3.85 | K 5.08
N23: E 4.68 | W 4 | C 4.68 | V 4.59 | K 4.61 | Q 4.64 | T 4.89 | M 3.73 | G 4.66 | H 4.91 | A 4.63 | R 4.18 | Y 3.82 | F 4.19 | L 4.04 | P 5.24 | I 4.61 | S 4.58 | D 5.02
K22: R 4.37 | W 3.9 | S 4.41 | V 3.17 | Y 3.81 | N 4.43 | T 4.28 | P 4.42 | Q 4.82

Variants of: B2
Experiment: as above
Details: c terminus: a fixed tail appended

Protein stability index of substitutions, site by site:
K11: G 4.44 | I 4.26 | R 4.46 | W 3.72 | S 4.35 | T 4.31 | N 4.54 | L 4.13 | C 4.57 | Y 4.12 | V 3.61 | F 3.9 | A 4 | P 3.65 | M 4.56 | D 4.63 | H 4.03 | Q 4.54 | E 4.22
T4: C 4 | G 4.26 | A 4.55 | F 4.15 | I 3.42 | M 3.92 | Q 4.23 | S 4.08 | P 4.29 | Y 4.08 | K 3.96 | H 4.1 | N 4.44 | R 3.92 | W 3.55 | E 3.4 | V 4.57 | D 4.85 | L 4.38
P15: S 4.03 | D 4.29 | L 4.8 | Q 4.25 | W 3.17 | I 3.3 | N 4.13 | M 3.54 | K 4.23 | V 3.63 | T 4.25 | E 4.94 | F 2.86 | H 4.01 | A 4.22 | G 4.35 | Y 3.16 | C 3.75 | R 4.16
W13: V 4.88 | A 4.8 | L 4.8 | R 4.71 | M 4.41 | C 4.76 | E 5.29 | F 4.59 | I 4.66 | H 4.66 | K 4.61 | G 5.5 | N 5.12 | Q 4.79 | D 4.4 | S 4.54 | Y 4.57 | T 4.79 | P 4.72
Q5: K 4.21 | N 4.23 | T 4.2 | A 4 | M 3.79 | I 4.16 | Y 3.25 | V 4.24 | L 4.17 | W 4.15 | F 3.3 | G 4.27 | C 4.04 | R 4.2 | S 4.13 | E 3.94 | H 4.63 | P 4.33 | D 4.16
G9: S 4.23 | D 4.55 | Q 4.22 | P 3.25 | F 3.87 | M 3.42 | N 3.47 | W 3.33 | K 4.25 | V 3.67 | A 4.03 | H 4.34 | L 4.19 | C 3.73 | T 4.25 | Y 3.59 | R 3.67 | I 3.8 | E 4.61
V1: Y 1.85 | A 4.56 | R 4.08 | T 4.63 | I 4.31 | K 4.36 | F 1.64 | L 3.53 | G 4.05 | S 4.19 | P 4.78 | H 4.17 | M 4.69 | C 4.28 | D 4.85 | N 4.53 | E 5.15 | Q 4.51 | W 4.23
V6: S 4.67 | K 4.69 | L 4.03 | M 4.29 | I 4.28 | G 4.83 | D 4.3 | F 4.65 | P 4.26 | T 4.7 | E 4.29 | N 4.47 | A 3.97 | H 3.51 | Y 3.82 | Q 4.73 | W 3.36 | R 4.55 | C 3.49
Q8: W 3.67 | Y 3.21 | E 3.48 | V 4.04 | A 4.41 | K 4.11 | D 4.71 | L 3.79 | R 4.34 | C 3.07 | I 4.15 | T 3.56 | P 4.07 | G 4.28 | F 4.17 | H 4.12 | S 3.71 | N 4.24 | M 3.97
S16: D 4.93 | C 4.11 | A 4.88
G3: V 3.99 | A 4.21 | L 4.1 | M 3.8 | D 4.96 | P 4.5 | K 3.77 | E 4.88 | F 3.01 | T 4.32 | C 4.12 | I 4.3 | N 4.3 | W 3.77 | Q 4 | R 3.35 | S 3.48 | Y 4.06 | H 4.28
P2: G 4.28 | F 3.99 | L 3.89 | C 3.61 | W 3.12 | D 4.12 | T 3.86 | R 4.24 | Y 2.83 | V 4.01 | H 3.75 | I 3.19 | K 3.89 | Q 3.87 | S 3.55 | A 4.17 | N 4.18 | E 4.25 | M 4.26
G7: A 4.02 | N 4.76 | H 3.78 | F 3.36 | D 4.24 | Y 3.86 | R 3.68 | C 4.29 | S 4.41 | E 4.41 | I 3.67 | P 3.78 | W 4.06 | K 3.81 | M 3.91 | V 3.87 | L 3.77 | Q 3.69 | T 3.33
L12: Y 3.79 | W 4.01 | G 3.97 | R 4.36 | C 3.94 | K 4.37 | A 3.4 | D 4.89 | S 4.3 | T 4.34 | H 4.45 | E 3.97 | V 4.42 | M 4.07 | P 5.07 | I 3.65 | Q 4.72 | N 4.42 | F 4.26
G10: V 3.71 | H 4.02 | S 4.48 | F 2.93 | L 3.62 | I 3.53 | K 4.5 | Y 3.55 | R 4.96 | Q 4.38 | E 4.01 | N 4.19 | A 4.33 | D 4.54 | M 4.28 | T 4.31 | W 2.45 | P 4.47 | C 3.24
D14: Y 3.11 | P 3.44 | R 3.05 | E 3.78 | S 3.99 | Q 4.09 | G 4.1 | C 3.35 | K 3.51 | M 3.36 | V 3.87 | W 3.19 | T 3.79 | H 4.08 | N 3.72 | F 3.07 | I 3.66 | A 4.14

From the supplement of paper PMC10567573
